Experimental findings from patent publication US20210047410A1 (ONCOLMMUNE, published 2021) are described below.

In general, Kd refers to the concentration at which binding is half-saturated. The low end stands for tighter binding, the high end for weaker binding. What is called IC50 is the concentration needed to halve the response being measured. Lower therefore signals greater potency. As usually defined, the EC50 (read off the curve) is the concentration needed to bring the measured effect to its halfway point. The koff is a measure of how fast the partners let go of each other. Low values mean slow dissociation, high ones fast dissociation. A word on the kon: it is a measure of how fast the partners come together. Low values mean slow association, high ones fast association.

Positions count from the first letter of the chain named.

The target of assay [1] is OFP-tagged human CTLA-4 on CHO cells (human) (UniProt P16410).
Assay [2] deals with human CTLA-4-Fc (human) (UniProt P16410). Description: BLI (Octet Red96); antibody on anti-hIgG-Fc biosensor, antigen in solution from 600 nM.
For assay [3], the target named is polyhistidine tagged human CTLA-4 (human) (UniProt P16410). Description: flow cytometry, competition: 200 ng biotinylated polyhistidine-tagged CTLA-4 on CHO cells expressing human B7-1 (blocked ligand), antibody varied, PE-streptavidin. A general note: In flow cytometry, cells or beads pass a laser one at a time.
For assay [4], the target named is human CTLA-4-Fc (human) (UniProt P16410). Description: competition ELISA: hCTLA-4-Ig immobilized at […], blocked ligand biotinylated hB7-1-Fc at […], antibody varied, avidin-HRP.
The target is the same in assay [5]. Description: competition ELISA; hB7-1-Fc coated at 0.5 µg/ml, biotinylated CTLA-4-Fc at […]. On the technique in general: ELISA stands for enzyme-linked immunosorbent assay.
For assay [6] the target is unchanged. Put plainly: competition ELISA: hCTLA-4-Fc coated at 1 µg/ml, blocked ligand biotinylated hB7-1-Fc at […], antibody varied.
Assay [7] has the same target. Put plainly: competition ELISA: B7-2-Fc immobilized (blocked ligand), biotinylated CTLA-4-Fc at […], antibody varied.
Assay [8] shares this target. Put plainly: competition ELISA; hB7-2-Fc coated, biotinylated CTLA-4-Fc at […].
Assay [9] shares this target. Description: flow cytometry, competition: 200 ng hCTLA-4-Fc on CHO cells expressing mouse B7-1 (blocked ligand), antibody varied.
For assay [10] the target is unchanged. Put plainly: ELISA: antibody coated at varying doses, biotinylated CTLA-4-Fc at […], streptavidin-HRP.
Assay [11] shares this target. Description: flow cytometry, competition: biotinylated CTLA-4-Fc on CHO cells expressing hB7-1 (blocked ligand), antibody varied, PE-streptavidin.
The target of assay [12] is human CTLA-4 on or in cells (T cells of Ctla4 h/h knock-in mice; CHO stable lines and 293T cells expressing hCTLA-4) (human) (UniProt P16410). Put plainly: cell-based or functional assay.
The target of assay [13] is human CTLA-4-Fc (human) (UniProt P16410). Description: flow cytometry, competition: biotinylated CTLA-4-Fc on CHO cells expressing mB7-2 (blocked ligand), antibody varied, PE-streptavidin.
For assay [14] the target is unchanged. Description: flow cytometry, competition: biotinylated CTLA-4-Fc 200 ng/test on hB7-1-positive, FcR-negative L929 cells (blocked ligand), antibody varied, PE-streptavidin.
For assay [15], the target named is T1, Recombinant mouse Ctla-4Fc protein (mouse, UniProt P09793 36-162, limits assumed).
T1 construct: Bought; also called biotinylated mouse Ctla-4-Fc; not shown: Fc part; not described
Put plainly: competition ELISA: B7-2 coated (blocked ligand), biotinylated mouse Ctla-4-Fc, antibody varied, avidin-HRP.

Assay [16] has as its target T1, Recombinant mouse Ctla-4Fc protein. Put plainly: competition ELISA: B7-1 coated (blocked ligand), biotinylated mouse Ctla-4-Fc, antibody varied, avidin-HRP.
The target of assay [17] is polyhistidine tagged human CTLA-4 (human) (UniProt P16410). Description: ELISA; His-hCTLA-4 coated at 0.5 µg/ml, varying antibody doses.
The target of assay [18] is human CTLA-4-Fc (human) (UniProt P16410). Put plainly: BLI (Octet Red96). On the technique in general: Biolayer interferometry detects binding as a change in optical thickness at a sensor tip.
The target of assay [19] is T1, Recombinant mouse Ctla-4Fc protein. Put plainly: ELISA, binding to soluble mouse Ctla-4-Fc; neither sheet nor legend says which component's concentration is on the axis.
Assay [20] deals with mouse Ctla-4 in cells (spleen CD3+CD4+ cells of Ctla4 m/m mice) (mouse) (UniProt P09793). Put plainly: cell-based or functional assay.
Assay [21] addresses T1, Recombinant mouse Ctla-4Fc protein. Description: competition ELISA: mB7-2 coated (blocked ligand), biotinylated mouse Ctla-4-Fc, antibody varied.
For assay [22] the target is unchanged. Description: ELISA: plate bound mouse Ctla-4-Fc, antibody varied.

human CTLA-4-Fc (human), sequence (P16410 37-161 limits assumed): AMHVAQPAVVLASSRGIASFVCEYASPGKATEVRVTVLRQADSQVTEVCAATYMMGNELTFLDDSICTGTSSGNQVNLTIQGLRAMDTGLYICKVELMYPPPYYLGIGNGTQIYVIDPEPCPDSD
polyhistidine tagged human CTLA-4 (human), sequence (P16410 36-162 limits assumed): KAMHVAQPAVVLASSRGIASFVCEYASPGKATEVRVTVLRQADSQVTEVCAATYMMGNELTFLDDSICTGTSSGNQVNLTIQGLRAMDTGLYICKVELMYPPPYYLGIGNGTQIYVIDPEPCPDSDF
OFP-tagged human CTLA-4 on CHO cells (human), sequence (P16410 36-223): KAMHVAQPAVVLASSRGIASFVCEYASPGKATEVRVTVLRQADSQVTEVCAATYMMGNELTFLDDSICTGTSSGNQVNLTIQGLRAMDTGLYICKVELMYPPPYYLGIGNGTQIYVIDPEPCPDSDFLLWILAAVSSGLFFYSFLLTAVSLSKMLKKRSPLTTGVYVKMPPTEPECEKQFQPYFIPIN
human CTLA-4 on or in cells (T cells of Ctla4 h/h knock-in mice; CHO stable lines and 293T cells expressing hCTLA-4) (human), sequence (P16410 36-223): as above

Consider “B7-H2-GFP on transfected P815 cells (ligand)”, for which, in assay [1], the % GFP+OFP+ cells (upper right quadrant), Mix-0 h is 0.19%; the % GFP+OFP+ cells (upper right quadrant), Mix-1 h is 0.3%; the % GFP+OFP+ cells (upper right quadrant), Mix-4 h came to 0.49%.
Molecule “L3D10 chimera antibody (human IgG1 Fc and the variable regions of mouse anti-human CTLA-4 mAb L3D10)” returned a Kd with human CTLA-4-Fc (human) [2] of 2.3 nM. The IC50 (read off the curve) in assay [3] worked out at 2 mg/L; with human CTLA-4-Fc (human) [4], 0.4 mg/L; in the assay with human CTLA-4-Fc (human) [6] it was 0.2 mg/L; with human CTLA-4-Fc (human) [7] it was 0.1 mg/L; with human CTLA-4-Fc (human) [9], 1 mg/L; with human CTLA-4-Fc (human) [11], 8 mg/L. Also, the IC50 (read off the curve) in the assay with human CTLA-4-Fc (human) [13] is 0.9 mg/L; in the assay with human CTLA-4-Fc (human) [14], 1 mg/L. Moreover, the IC50 came to 3 mg/L with human CTLA-4-Fc (human) [5] and 0.1 mg/L with human CTLA-4-Fc (human) [8]. The lowest concentration with significant blocking with human CTLA-4-Fc (human) [5] came to 0.2 µg/mL. In addition, the EC50 (read off the curve) with human CTLA-4-Fc (human) [10] was 1 mg/L. For the same molecule, in assay [12], the level of hB7-2 on DC of human CD34+ reconstituted NSG mice came out at 2.5 fold.
Regarding “hamster anti-mouse Ctla-4 mAb 4F10 (antibody)”, the IC50 (read off the curve) in assay [15] is 0.3 mg/L; in assay [16], 1 mg/L.

B1: HL12 (humanized L3D10 clone) (antibody, from another filing, V domains shown)
VH: QVQLQESGPGLVKPSETLSLTCTVSGFSLTSYGLSWIRQPPGKGLEWIGYIWYDGNTNFHPSLKSRVTISKDTSKNQFSLKLSSVTAADTAVYYCAKTEGHYYGSNYGYYALDYWGQGTSVTVSS
VL: DIQMTQSPSSLSASVGDRVTITCRASENIYSNLAWYQQKQGKAPKLLLYAATNLQDGVPSRFSGSGSGTDYTLTISSLQPEDFATYFCQHLWGTPYTFGQGTKLEIK
Turning to B1, in the assay with human CTLA-4-Fc (human) [2], the Kd amounted to 7.2 nM, the koff is 0.0016 s⁻¹ and the kon is 230000 M⁻¹ s⁻¹. In [17], this molecule came in with a fold reduction of binding at pH 4.5 against pH 7.0 (by increase of IC50) above 100 fold and a fold reduction of binding at pH 5.5 against pH 7.0 (by increase of IC50) above 10 fold. Also, the fold increase in off-rate against L3D10 with human CTLA-4-Fc (human) [18] was 4 fold.

B2: HL32 (humanized L3D10 clone) (antibody, from another filing, V domains shown)
VH: B1 VH with P61S, S62P, K71V, S120L
VL: B1 VL
In the assay with human CTLA-4-Fc (human) [2], B2 yielded a Kd of 7.1 nM, a koff of 0.0019 s⁻¹ and a kon of 270000 M⁻¹ s⁻¹. Besides, in [17], the fold reduction of binding at pH 4.5 against pH 7.0 (by increase of IC50) was above 100 fold and the fold reduction of binding at pH 5.5 against pH 7.0 (by increase of IC50) is above 10 fold. Further, the fold increase in off-rate against L3D10 with human CTLA-4-Fc (human) [18] came to 4 fold.

B3: anti-mouse Ctla-4 mAb 9D9 (antibody, V domains shown)
VH: EAKLQESGPVLVKPGASVKMSCKASGYTFTDYYMNWVKQSHGKSLEWIGVINPYNGDTSYNQKFKGKATLTVDKSSSTAYMELNSLTSEDSAVYYCARYYGSWFAYWGQGTLITVST
VL: DIVMTQTTLSLPVSLGDQASISCRSSQSIVHSNGNTYLEWYLQKPGQSPKLLIYKVSNRFSGVPDRFSGSGSGTDFTLKISRVEAEDLGVYYCFQGSHVPYTFGGGTKLEIK
Turning to B3, in assay [19], the “EC50 (read off the curve)” value was around 0.4 mg/L. In assay [20], this molecule showed a level of mB7-1 on DC of WT mice of 15%. The “IC50 (read off the curve)” value in assay [21] was around 2 mg/L.

B4: anti-mouse Ctla-4 mAb 9H10 (antibody, from another filing)
scFv: YPYDVPDYAGAQPARSDIVMTQSPSSLAVSVGEKVTISCKSSQSLLYGSSHYLAWYQQKVGQSPKLLIYWASTRHTGIPDRFIGSGSGTDFTLSLSSVQAEDMADYFCQQYFSTPWTFGAGTRVEIKSGSGGGSGGGSGGGSQVQLLQSESELVKPGASVKLSCKTSGYTFTDYYIHWVKQKPGQGLEWIGLINPNNDGTNYNQKFQGKATLTADKSSSTAYMELNSLTFDDSVIYFCARASSRLRMARTTSDYYAMDYWGQGIQVTVSSVDSSGSGGCKPCICTVPEVSSVFIFPPKPKDVLTITLTPKVTCVVVDISKDDPEVQFSWFVDDVEVHTAQTQPREEQFNSTFRSVSELPIMHQDWLNGKEFKCRVNSAAFPAPIEKTISKTKGRPKAPQVYTIPPPKEQMAKDKVSLTCMITDFFPEDITVEWQWNGQPAENYKNTQPIMDTDGSYFVYSKLNVQKSNWEAGNTFTCSVLHEGLHNHHTEKSLSHSPGK
Turning to B4, the EC50 (read off the curve) in assay [22] worked out at 1 mg/L.
